Laboratory results as given in patent publication US20180186871A1 (SINGAPORE HEALTH SERVICES PTE, published 2018).

T1: human IL-11 (human, UniProt P20809 22-199)
T1 sequence (looked up): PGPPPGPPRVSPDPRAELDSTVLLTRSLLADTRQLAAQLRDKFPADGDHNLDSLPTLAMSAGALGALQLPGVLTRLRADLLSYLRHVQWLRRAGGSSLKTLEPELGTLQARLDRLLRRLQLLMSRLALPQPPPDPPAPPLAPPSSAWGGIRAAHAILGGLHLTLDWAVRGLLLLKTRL

B1: YU112-D08 (scFv)
scFv: QVQLVESGGGVVQPGRSLRLSCAASGFTFSSYGMHWVRQAPGKGLEWVAVISYDGSNKYYADSVEGRFTISRDNSKNTLYLQMNSLRAEDTAVYYCAKIGATDPLDYWGQGTLVTVSSGSASAPKLEEGEFSEARVQSALTQPRSVSGSPGQSVTISCTGTISDVGGYNYVSWYQQHPGKAPKLMIYDVTKRPSGVPDRFSGSKSGNTASLTISGLQAEDEAGYYCSSYAGSYTWVFGGGTELTVL
B2: YU112-G06 (scFv)
scFv: QVQLQESGGGVVQPGRSLRLSCAASGFTFSSYGMHWVRQAPGKGLEWVAVISYDGSNKYYADSVKGRFTISRDNSKNTLYLQMNSLRAEDTAVYYCAKIGATDPLDYWGQGTLVTVSSGSASAPKLEEGEFSEARVQSALTQPRSVSGSPGQSVTISCTGTISDVGGYNYVSWYQQHPGKAPKLMIYDVTKRRSGVPDRFSGSKSGNTASLTISGLQAEDEAGYYCSSYAGGYTWVFGGGTELTVL
B3: YU100-E11 (scFv)
scFv: QVQLVESGGGVVQPGRSLRLSCAASGFTFSSYGMHWVRQAPGKGLEWVAVISYDGSNKYYADSVKGRFTISRDNSKNTLYLQMNSLRAEDTAVYYCARIMGYDYGDYDVVDYWGQGTLVTVSSGSASAPKLEEGEFSEARVQSALTQPRSVSGSPGQSVTISCTGTSSDVGGYNYVSWYQQHPGKAPKLMIYDVSKRPSGVPDRFSGSKSGNTASLTISGLQAEDEADYYCCSYAGSYTWVFGGGTKLTVL
B4: YU100-E08 (scFv)
scFv: QVQLVQSGGGVVQPGRSLRLSCAASGFTFSSYAMHWVRQAPGKGLEWVAVISYDGSNKYYADSVKGRFTISRDNSKNTLYLQMNSLRAEDTAVYYCARIMGYDYGDYDVVDYWGQGTLVTVSSGSASAPKLEEGEFSEARVQSALTQPRSVSGSPGQSVTISCTGTSSDVGGYNYVSWYQQHPGKAPKLMIYDVSRRPSGVPDRFSGSKSGNTASLTISGLQAEDEADYYCCSYAGNYTWMFGGGTKLTVL
B5: YU100-E09 (scFv)
scFv: QVQLVESGGGVVQPGRSLRLSCAASGFTFSSYAMHWVRQAPGKGLEWVAVISYDGSNKYYADSVKGRFTISRDNSKNTLYLQMNSLRAEDTAVYYCARIMGYDYGDYDVVDYWGQGTLVTVSSGSASAPKLEEGEFSEARVQSALTQPRSVSGSPGQSVTISCTGTSSDVGDYDYVSWYQQHPGKAPKLIIYDVTKRPSGIPDRFSGSKSGNTASLTISGLQAEDEADYYCCSYAGSYTWVFGRGTKLTVL
B6: YU100-F07 (scFv)
scFv: QVQLVESGGGVVQPGRSLRLSCAASGFTFSSYAMHWVRQAPGKGLEWVAVISYDGSNKYYADSVKGRFTISRDNSKNTLYLQMNSLRAEDTAVYYCARIMGYDYGDYDVVDYWGQGTLVTVSSGSASAPKLEEGEFSEARVQSALTQPRSVSVSPGQSVTISCTGTSSDVGGYEYVSWYQQHPGKAPKLMIYDVTKRPSGVPDRFSGSKSGNTASLTISGLQGEDAADYYCCSYAGSYTWVFGGGTTVTVL
B7: YU100-H02 (scFv)
scFv: QVQLQQSGGGVVQPGRSLRLSCAASGFTFSSYGMHWVRQAPGKGLEWVAVISYDGSNKYYADSVKGRFTISRDNSKNTLYLQMNSLRAEDTAVYYCARIMGYDYGDYDVVDYWGQGTLVTVSSGSASAPKLEEGEFSEARVQSALTQPRSVSRSPGQSVTISCTGTSSDVGTYNYVSWYQQHPGKAPKLMIYDVSKRPSGVPDRFSGSKSGNTASLTISGLQAEDEADYYCCSYAGFYTWVFGGGTKLTVL
B8: YU100-H04 (scFv)
scFv: QVQLVESGGGVVQPGRSLRLSCAASGFTFSSYAMHWVRQAPGKGLEWVAVISYDGSNKYYADSVKGRFTISRDNSKNTLYLQMNSLRAEDTAVYYCARIMGYDYGDYDVVDYWGQGTLVTVSSGSASAPKLEEGEFSEARVQSALTQPASVSGSPGQSITISCTGTSSDIGVYNYVSWYQQHPGKAPKLMIYDVSKRPSGVPDRFSGSKSGNTASLTISGLQAEDEADYYCCSYAGSYTWVFGGGTKLTVL
B9: YU100-H09 (scFv, not shown: a dimerising Fc or GST)
scFv: QVQLVQSGGGVVQPGRSLRLSCAASGFTFSSYAMHWVRQAPGKGLEWVAVISYDGSNKYYADSVKGRFTISRDNSKNTLYLQMNSLRAEDTAVYYCARIMGYDYGDYDVVDYWGQGTLVTVSSGSASAPKLEEGEFSEARVQSALTQPASVSGSPGQSITISCTGTSSDVGGYNYVSWYQQHPGKAPKLMIYDVSNRPSGVSNRFSGSKSGNTASLTISGLQAEDEADYYCCSYAGSYTWVFGGGTKLTVL
B10: YU112-C05 (scFv, not shown: a dimerising Fc or GST)
scFv: EVQLVESGGGVVQPGRSLRLSCAASGFTFSSYAMHWVRQAPGKGLEWVAVISYDGSNKYYADSVKGRFTISRDNSKNTLYLQMNSLRAEDTAVYYCARIMGYDYGDYDVVDYWGQGTLVTVSSGSASAPKLEEGEFSEARVQSALTQPRSVSGSPGQSVTISCTGTISDVGGYNYVSWYQQHPGKAPKLMIYDVTKRPSGVPDRFSGSKSGNTASLTISGLQAEDEAGYYCSSYAGSYTWVFGGGTELTVL
B11: YU100-G10 (scFv)
scFv: QVQLVQSGGGVVQPGRSLRLSCAASGFTFSSYGMHWVRQAPGKGLEWVAVISYDGSNKYYADSVKGRFTISRDNSKNTLYLQMNSLRAEDTAVYYCAKIGATDPLDYWGQGTLVTVSSGSASAPKLEEGEFSEARVQSALTQPASVSGSLGQSITMSCTGTRRDVGGYDFVSWYQQYPGKAPKLIIYDVSNRPSGVSNRFTGSKSGNTASLTISGLQAEDEADYYCCSYAGTYTWVFGGGTKVTVL
B12: YU100-F01 (scFv)
scFv: QVQLVQSGGGVVQPGRSLRLSCAASGFTFSSYGMHWVRQAPGKGLEWVAVISYDGSNKYYADSVKGRFTISRDNSKNTLYLQMNSLRAEDTAVYYCAKIGATDPLDYWGQGTLVTVSSGSASAPKLEEGEFSEARVQSALTQPASVSGSPGQSITISCTGTGSDVGAYDYVSWYQQHPGKAPKLMIYDVNNRPSGVSNRFSGSKSGNTASLTISGLQAEDEAEYYCSSFATSISWVFGGGTRLTVL

Target: T1, human IL-11
Test: cell-based or functional assay
Note: test concentration or dose not given here.

B1 and B2 are within 1.5-fold of each other in “MMP2 production (ng/ml), TGFB1-stimulated human atrial fibroblasts, Experiment 1 (NEG 42.7, POS 70.2)” value (shortened to “MMP2 production (ng/ml) … (NEG 42.7, POS 70.2)”): 50.3 ng/mL for the first, 55 ng/mL for the second.

B3 and B4 are within 1.5-fold of each other in “MMP2 production (ng/ml) … (NEG 42.7, POS 70.2)” value: 49.1 ng/mL for the first, 48.2 ng/mL for the second.

B5 and B6 are within 1.5-fold of each other in “MMP2 production (ng/ml) … (NEG 42.7, POS 70.2)” value: 51.7 ng/mL for the first, 53.1 ng/mL for the second.

B7 and B8 are within 1.5-fold of each other in “MMP2 production (ng/ml) … (NEG 42.7, POS 70.2)” value: 57.5 ng/mL for the first, 58.5 ng/mL for the second.

B9 and B10 are within 1.5-fold of each other in “MMP2 production (ng/ml) … (NEG 42.7, POS 70.2)” value: 52.9 ng/mL for the first, 55.2 ng/mL for the second.

B11 and B12 are within 1.5-fold of each other in “MMP2 production (ng/ml) … (NEG 42.7, POS 70.2)” value: 54 ng/mL for the first, 52.8 ng/mL for the second.

B1 and B2 are within 1.5-fold of each other in “MMP2 production (ng/ml), TGFB1-stimulated human atrial fibroblasts, Experiment 2 (NEG 36.2, POS 62.3)” value (from here on “MMP2 production (ng/ml) … (NEG 36.2, POS 62.3)”): 42.5 ng/mL for the first, 47.8 ng/mL for the second.

B3 and B4 are within 1.5-fold of each other in “MMP2 production (ng/ml) … (NEG 36.2, POS 62.3)” value: 41.9 ng/mL for the first, 59.7 ng/mL for the second.

B5 and B6 are within 1.5-fold of each other in “MMP2 production (ng/ml) … (NEG 36.2, POS 62.3)” value: 44.4 ng/mL for the first, 46.6 ng/mL for the second.

B7 and B8 are within 1.5-fold of each other in “MMP2 production (ng/ml) … (NEG 36.2, POS 62.3)” value: 51.3 ng/mL for the first, 48.7 ng/mL for the second.

B9 and B10 are within 1.5-fold of each other in “MMP2 production (ng/ml) … (NEG 36.2, POS 62.3)” value: 39.6 ng/mL for the first, 50.1 ng/mL for the second.

B11 and B12 are within 1.5-fold of each other in “MMP2 production (ng/ml) … (NEG 36.2, POS 62.3)” value: 45.4 ng/mL for the first, 39.9 ng/mL for the second.
